The values that follow come from patent publication US7968081B2, “Peptide for diagnosing, preventing and treating atherosclerosis and uses thereof” (Kyungpook National University Industry—Academic Cooperation …, priority 2007, dated 2011).

Ends that are not written are not given here. * marks the point of attachment. FITC = O=C1OC2(c3ccc(O)cc3Oc3cc(O)ccc32)c2ccc(NC(=S)*)cc21

The subject of assay [1] is atherosclerotic plaque tissues. Put plainly: In vivo atherosclerotic targeting of fluorescent dye-conjugated peptide (fluorescence microscopy of frozen sections). Conditions: atherosclerosis-induced mice, circulation 15 min. An excerpt:
C57BL/6 mice (Ldlr−/−) into which deficiency of a low-density lipoprotein (LDL) receptor was introduced by a genetic engineering technique were fed daily for 10 weeks with 3 g of high-cholesterol diet, thereby inducing atherosclerosis in animals. The high-cholesterol diet was a special animal feed containing 1.25% cholesterol, 15% fat and 0.5% cholate (Oriental Yeast Co., Japan).
Here, the peptide was synthesized by tagging an N-terminus of the peptide with FITC (fluorescein isothiocyanate) as a green fluorescent dye. The synthesized FITC-CRKRLDRNC peptide and a control peptide (FITC-NSSVDK) at final blood concentrations of 50 μM were injected into the atherosclerosis-induced mice via the left ventricle of animals, followed by circulation for 15 min. Thereafter, the aortae were removed from each mouse, and frozen sections were prepared, followed by Oil Red O (fat marker, Sigma-Aldrich, USA) staining or vWF (vascular endothelial cell marker, 1:5000 dilution, Abcam, USA) and Mac-3 (macrophage marker, 1:50 dilution, BD, USA) staining (Matter et al., Circulation Research, 95:1225-1233, 2004). In order to stain nuclei in tissues, a mounting medium containing a nuclear staining dye, 4′,6-diamidino-2-phenylindole (DAPI) (manufactured by Molecular Probe, USA) was treated on a slide, according to a conventional method known in the art, followed by fluorescence microscopic examination.

The target of assay [2] is T1, IL-4R (Mus musculus, UniProt P16382).
T1 construct: from tissue; host or cells: aorta / atherosclerotic plaque of Ldlr-/- mice
T1 sequence (P16382 26-810): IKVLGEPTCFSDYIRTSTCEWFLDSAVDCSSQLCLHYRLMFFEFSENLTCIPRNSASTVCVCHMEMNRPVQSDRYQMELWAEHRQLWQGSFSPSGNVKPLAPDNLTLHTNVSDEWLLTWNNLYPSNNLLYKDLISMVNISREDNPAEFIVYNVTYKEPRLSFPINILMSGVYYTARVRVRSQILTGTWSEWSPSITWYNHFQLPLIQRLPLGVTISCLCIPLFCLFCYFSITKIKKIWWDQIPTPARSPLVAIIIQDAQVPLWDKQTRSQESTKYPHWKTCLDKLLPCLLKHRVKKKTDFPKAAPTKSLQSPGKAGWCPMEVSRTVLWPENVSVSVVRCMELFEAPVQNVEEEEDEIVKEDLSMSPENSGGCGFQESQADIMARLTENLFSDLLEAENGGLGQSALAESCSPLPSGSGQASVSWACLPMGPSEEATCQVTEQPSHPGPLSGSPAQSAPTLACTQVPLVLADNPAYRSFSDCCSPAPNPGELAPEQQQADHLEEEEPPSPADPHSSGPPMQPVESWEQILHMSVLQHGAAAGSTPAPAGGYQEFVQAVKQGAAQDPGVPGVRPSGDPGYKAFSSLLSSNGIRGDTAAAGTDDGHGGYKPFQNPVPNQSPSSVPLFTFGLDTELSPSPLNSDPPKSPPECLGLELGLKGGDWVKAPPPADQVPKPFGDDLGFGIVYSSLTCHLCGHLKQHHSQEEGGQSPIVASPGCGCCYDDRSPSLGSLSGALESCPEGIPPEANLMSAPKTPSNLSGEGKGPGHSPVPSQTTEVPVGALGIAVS
Put plainly: Histological distribution of peptide and IL-4R in atherosclerotic plaque tissues. Type of assay: in vivo, mice. Conditions: 50 μM final concentration in blood, circulation 15 min; IL-4R antibody staining. The procedure:
In order to ascertain a receptor that binds to the peptide of the present invention, binding of the peptide was examined for various receptors. Out of those receptors, the results for IL-4R are as follows. First, fluorescein (FITC)-conjugated peptide of the present invention at a final concentration of 50 μM was injected into the blood of experimental animals, followed by circulation for 15 min. Thereafter, the aortae were removed from animals, and a frozen section slide was prepared. Then, the tissue section was stained by reaction of the section with antibodies (1:200 dilution, BD, USA) directed against IL-4R, at room temperature for 1 hour. In order to stain the tissue nuclei, DAPI was treated on the slide which was then examined under a fluorescence microscope (Joshi et al., Cancer Research, 61:8058-8061, 2001).

The target of assay [3] is T2, IL-4R (Homo sapiens, UniProt P24394).
T2 sequence (P24394 26-825): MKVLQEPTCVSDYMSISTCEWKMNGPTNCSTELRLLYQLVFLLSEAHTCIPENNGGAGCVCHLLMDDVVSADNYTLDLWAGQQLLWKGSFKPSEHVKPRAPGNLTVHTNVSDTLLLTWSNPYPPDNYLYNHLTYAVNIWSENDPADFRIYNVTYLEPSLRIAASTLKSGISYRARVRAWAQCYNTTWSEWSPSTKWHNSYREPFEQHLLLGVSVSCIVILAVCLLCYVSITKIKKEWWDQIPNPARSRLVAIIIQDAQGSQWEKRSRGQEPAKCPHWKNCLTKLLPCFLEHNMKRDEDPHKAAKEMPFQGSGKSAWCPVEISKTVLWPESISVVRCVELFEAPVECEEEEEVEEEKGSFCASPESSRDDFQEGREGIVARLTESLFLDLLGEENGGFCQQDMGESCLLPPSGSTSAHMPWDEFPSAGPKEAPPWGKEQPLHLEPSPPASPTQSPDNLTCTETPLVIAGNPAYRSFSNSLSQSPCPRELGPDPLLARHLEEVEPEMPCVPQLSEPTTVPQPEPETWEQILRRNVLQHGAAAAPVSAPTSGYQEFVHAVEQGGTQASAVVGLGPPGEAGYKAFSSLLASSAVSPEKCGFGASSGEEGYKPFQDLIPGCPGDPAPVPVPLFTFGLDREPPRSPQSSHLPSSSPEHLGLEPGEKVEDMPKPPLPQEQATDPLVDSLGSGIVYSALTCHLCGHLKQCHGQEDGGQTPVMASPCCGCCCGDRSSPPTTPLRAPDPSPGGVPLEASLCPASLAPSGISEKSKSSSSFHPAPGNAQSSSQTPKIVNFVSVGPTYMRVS
Put plainly: Bindability of peptide to IL-4R-expressing CHO-K1 cells (fluorescence microscopy). It counts as binding. Particulars: 10 μM peptide, room temperature, 1 hour. The source says: In order to further confirm roles of IL-4R as the receptor for the peptide of the present invention, a plasmid capable of expressing IL-4R (Cat. #TC119877, Origene, USA) was introduced into IL-4R-deficient CHO-K1 cells according to a conventional method known in the art, followed by expression of IL-4R, and binding of IL-4R with the peptide of the present invention was examined.
The cells were stained with antibodies (1:200 dilution) directed against. IL-4R and cell nuclei were stained with DAPI, followed by fluorescence microscopic examination. As a result, a large amount of IL-4R (red fluorescence) was present on the cell surface (FIG. 6B). Next, CHO-K1 and CHO-K1/IL-4R cells were reacted with 10 μM of the FITC-C-RKRLDRNC peptide at room temperature for 1 hour.

The target of assay [4] is T2, IL-4R. Put plainly: Bindability of peptide to HT-1376 cells with inhibited expression of IL-4R (siRNA). It counts as binding. Set-up: HT-1376 cells that essentially show constitutive expression of IL-4R; endogenous in cells; host or cells: HT-1376. The procedure:
Silencing RNA for IL-4R (Cat. #16708A, Ambion, USA) was introduced into HT-1376 cells that essentially show constitutive expression of IL-4R, according to a conventional method known in the art, and treated for 24 hours to thereby result in substantially no expression of IL-4R, followed by evaluation of peptide binding. More specifically, 10 nM of IL-4R silencing RNA synthesized by the manufacturer was mixed with a siPORT™ NeoFX™ lipid transfection agent (Ambion, USA), and the mixture was treated for 24 hours on HT-1376 cells grown in a 4-well chamber slide, such that IL-4R silencing RNA is incorporated into the cells. Thereafter, the culture medium was replaced with one containing 10% bovine serum and the cells were recovered for 24 hours. After staining of cells with IL-4R antibodies and nuclear DAPI staining under the same conditions as in FIG. 6, a cellular expression level of IL-4R was examined. After IL-4R staining, the FITC-CRKRLDRNC peptide was reacted with the cells under the same conditions as in FIG. 6, and a binding degree of the peptide was measured.

With “FITC-CRKRLDRNC ({FITC}-CRKRLDRNC; cysteine pairing not given here) [FITC-CRKRLDRNC peptide, called the peptide of the present invention in b132]”, in assay [1] (50 μM), the “peptide detection in cerebral tissues” value is “not detected” and the “peptide detection in pulmonary tissues” value was “not detected”. The “peptide found in aortic atherosclerotic plaque tissues (green fluorescence)” value in assay [1] (final blood concentration 50 μM via left ventricle) is given as “more targeted in plaque tissues”. The “position of peptide (green fluorescence) relative to IL-4R (red fluorescence) in atherosclerotic plaque tissues” value with IL-4R [2] is “almost identically positioned”. Moreover, in the assay with IL-4R [3], the “binding to CHO-K1/IL-4R cells (IL-4R-expressing)” value is recorded as “green fluorescence due to the peptide” and the “binding to IL-4R-deficient CHO-K1 cells” value was “no fluorescence arising from the peptide”. Besides, in the assay with IL-4R [4] (same conditions as in FIG. 6), the “binding to HT-1376/siIL-4R cells (IL-4R silencing RNA-treated)” value is given as “substantially no binding” and the “binding to mock silencing RNA-treated HT-1376 cells” value is “good bindability”. In the assay with IL-4R [4] (same conditions as in FIG. 6 (10 μM, room temperature, 1 hour)), the “binding to HT-1376 cells (constitutive expression of IL-4R)” value was “active binding”.
